Data on two molecules can be found in PMC5173032, “A plasma proteolysis pathway comprising blood coagulation proteases” (Oncotarget, 2016).

B1: recombinant human FXII with 6XHis C-terminal tag (natural protein, UniProt P00748 20-615, looked up)
chain: IPPWEAPKEHKYKAEEHTVVLTVTGEPCHFPFQYHRQLYHKCTHKGRPGPQPWCATTPNFDQDQRWGYCLEPKKVKDHCSKHSPCQKGGTCVNMPSGPHCLCPQHLTGNHCQKEKCFEPQLLRFFHKNEIWYRTEQAAVARCQCKGPDAHCQRLASQACRTNPCLHGGRCLEVEGHRLCHCPVGYTGAFCDVDTKASCYDGRGLSYRGLARTTLSGAPCQPWASEATYRNVTAEQARNWGLGGHAFCRNPDNDIRPWCFVLNRDRLSWEYCDLAQCQTPTQAAPPTPVSPRLHVPLMPAQPAPPKPQPTTRTPPQSQTPGALPAKREQPPSLTRNGPLSCGQRLRKSLSSMTRVVGGLVALRGAHPYIAALYWGHSFCAGSLIAPCWVLTAAHCLQDRPAPEDLTVVLGQERRNHSCEPCQTLAVRSYRLHEAFSPVSYQHDLALLRLQEDADGSCALLSPYVQPVCLPSGAARPSETTLCQVAGWGHQFEGAEEYASFLQEAQVPFLSLERCSAPDVHGSSILPGMLCAGFLEGGTDACQGDSGGPLVCEDQAAERRLTLQGIISWGSGCGDRNKPGVYTDVAYYLAWIREHTVS
notes: signal peptide in the construct; also called factor XII; source: CHO-K1, transfected (pCMV6-XL5), purified from cell lysate (Ni-NTA agarose); not shown: His6, C-terminal, kept

Holding throughout (settings): both partners purified
In assay [1] the target is T1, human amyloid β1-42 (human, UniProt P05067 672-713).
T1 construct: amyloid β1-42, the peptide cut by secretases from the human Aβ precursor protein; numbers count on: the peptide; also called hAβ1-42; Aβ1-42; source: bought: Sigma-Aldrich (A9810)
Put plainly: co-sedimentation; hAβ1-42 (200 nM) incubated with FXII or a mutant (20 nM) in PBS, 100 μl, 2 h at RT; Aβ1-42 aggregated; low-speed centrifugation; precipitates re-dissolved in 2% SDS and analysed with the supernatants by IB.

The target of assay [2] is B1. Description: co-IP; purified proteins: hPEPD, an hPEPD mutant or mSRC at 40 nM incubated with a coagulation factor, FXII or an FXII mutant at 0.5 μM in PBS, 100 μl, 2 h at 37°C; then a specific primary antibody at 4°C overnight, IP by protein G-agarose, IB.
Assay [3] addresses T2, 153T-172Rdel-FXII (human, UniProt P00748 20-615, 153T-172Rdel).
T2 construct: signal peptide in the construct; source: CHO-K1, transfected (pCMV6-XL5), purified from cell lysate (Ni-NTA agarose); not shown: His6, C-terminal, kept
T2 sequence (looked up): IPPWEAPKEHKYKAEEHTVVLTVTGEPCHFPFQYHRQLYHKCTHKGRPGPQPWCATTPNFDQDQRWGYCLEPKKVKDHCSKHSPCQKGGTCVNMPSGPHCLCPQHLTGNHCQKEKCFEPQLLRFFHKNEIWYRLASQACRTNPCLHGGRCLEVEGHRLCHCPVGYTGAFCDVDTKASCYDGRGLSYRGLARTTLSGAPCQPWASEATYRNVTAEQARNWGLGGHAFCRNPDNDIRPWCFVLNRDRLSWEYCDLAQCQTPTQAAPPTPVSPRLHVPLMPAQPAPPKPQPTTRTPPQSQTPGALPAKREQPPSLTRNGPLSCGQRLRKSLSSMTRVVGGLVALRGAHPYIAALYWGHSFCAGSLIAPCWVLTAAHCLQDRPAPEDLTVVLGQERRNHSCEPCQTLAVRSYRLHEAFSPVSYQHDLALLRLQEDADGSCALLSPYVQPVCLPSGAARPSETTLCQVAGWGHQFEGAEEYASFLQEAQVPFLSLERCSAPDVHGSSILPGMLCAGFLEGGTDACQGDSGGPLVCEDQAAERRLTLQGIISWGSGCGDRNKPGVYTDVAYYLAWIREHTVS
Described as above.

Assay [4] deals with T3, 20I-50Pdel-FXII (human, UniProt P00748 20-615, 20I-50Pdel).
T3 construct: signal peptide in the construct; source: CHO-K1, transfected (pCMV6-XL5), purified from cell lysate (Ni-NTA agarose); not shown: His6, C-terminal, kept
T3 sequence (looked up): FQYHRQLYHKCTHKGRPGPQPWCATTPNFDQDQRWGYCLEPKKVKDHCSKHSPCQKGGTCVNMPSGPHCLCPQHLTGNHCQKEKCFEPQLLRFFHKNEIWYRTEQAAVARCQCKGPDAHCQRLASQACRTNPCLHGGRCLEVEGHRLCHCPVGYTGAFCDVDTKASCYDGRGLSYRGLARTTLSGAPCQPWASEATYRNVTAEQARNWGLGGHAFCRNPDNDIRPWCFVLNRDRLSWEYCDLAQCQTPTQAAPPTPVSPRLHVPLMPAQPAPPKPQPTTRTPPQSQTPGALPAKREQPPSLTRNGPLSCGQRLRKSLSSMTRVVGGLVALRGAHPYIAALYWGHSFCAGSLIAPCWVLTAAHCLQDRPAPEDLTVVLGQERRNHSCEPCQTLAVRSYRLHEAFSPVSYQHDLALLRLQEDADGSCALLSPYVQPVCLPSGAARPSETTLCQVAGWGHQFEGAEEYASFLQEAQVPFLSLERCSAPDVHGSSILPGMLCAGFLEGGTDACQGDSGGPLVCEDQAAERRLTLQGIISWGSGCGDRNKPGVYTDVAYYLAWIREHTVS
Described as above.

In the case of B1, the binding result in assay [1] is on record as “binds”.

B2: recombinant human prolidase (peptidase D, PEPD) (enzyme, UniProt P12955 1-493, looked up)
chain: MAAATGPSFWLGNETLKVPLALFALNRQRLCERLRKNPAVQAGSIVVLQGGEETQRYCTDTGVLFRQESFFHWAFGVTEPGCYGVIDVDTGKSTLFVPRLPASHATWMGKIHSKEHFKEKYAVDDVQYVDEIASVLTSQKPSVLLTLRGVNTDSGSVCREASFDGISKFEVNNTILHPEIVECRVFKTDMELEVLRYTNKISSEAHREVMKAVKVGMKEYELESLFEHYCYSRGGMRHSSYTCICGSGENSAVLHYGHAGAPNDRTIQNGDMCLFDMGGEYYCFASDITCSFPANGKFTADQKAVYEAVLRSSRAVMGAMKPGVWWPDMHRLADRIHLEELAHMGILSGSVDAMVQAHLGAVFMPHGLGHFLGIDVHDVGGYPEGVERIDEPGLRSLRTARHLQPGMVLTVEPGIYFIDHLLDEALADPARASFLNREVLQRFRGFGGVRIEEDVVVTDSGIELLTCVPRTVEEIEACMAGCDKAFTPFSGPK
notes: human prolidase (peptidase D); also called hPEPD; source: recombinant, generated, purified and characterized as recently reported [7, 11]; not shown: His6, C-terminal, kept
As for B2, the binding result in assay [2], in assay [3] and in assay [4] was “binds” throughout.
